Test results from KR20170021349A, “다양한 질병의 치료를 위한 jnk 신호 전달 경로의 세포 투과성 펩타이드 억제자의 새로운 용도” (자이겐 인플라메이션 리미티드, priority 2014, dated 2017).
Read-outs that look alike come from different tables or passages of the source.

How the values were obtained:
[1] = test system: endogenous JNK in HepG2 cells; assay: AlphaScreen kinase assay of endogenous IL-1-induced JNK activity; format: cell-based; conditions: IL-1-dependent JNK activity, Fig. 3d
rats = assay: Adriamycin-induced nephropathy; format: in vivo, rat
Wistar rats [2] = assay: Puromycin aminonucleoside (PAN)-induced nephropathy, 56 days; format: in vivo, rat
Sprague-Dawley rats [3] = assay: STZ diabetic nephropathy model, chronic administration; format: in vivo, rat; conditions: 1, 2, 4 mg/kg i.v. weekly, 9 weeks
Wistar rats [4] = assay: Ligature-induced periodontitis; format: in vivo, rat; conditions: day 17
Brown Norway rats = assay: STZ diabetic retinopathy prevention, intravitreal, ERG; format: in vivo, rat
[5] = test system: Huh7 tumours in nude mice; assay: Huh7 human liver cancer xenograft; format: in vivo, mouse; conditions: 5 mg/kg i.p. twice weekly, 4 weeks
[6] = test system: Hep G2 tumours in SWISS nude mice; assay: Orthotopic Hep G2 human liver carcinoma, 1 mg/kg; format: in vivo, mouse
Sprague-Dawley rats [7] = assay: Bilateral renal ischemia reperfusion, histology; format: in vivo, rat
[8] = test system: female Sprague-Dawley rats; assay: Cystometry in conscious rats with CYP-induced cystitis; format: in vivo, rat; conditions: 2 mg/kg i.v.; 30-60 min post-dose; P<0.01
[9] = test system: primary mouse cortical neurons; assay: JNK activation in cortical neurons under H2O2 oxidative stress; format: cell-based; conditions: 5 μM pre-treatment; 1 mM H2O2 15 min
[10] = test system: primary cortical neurons of PKR-/- mice; assay: Aβ42-induced stress/apoptosis in PKR-/- cortical neurons; format: cell-based, mouse
Jurkat cells = assay: PMA & ionomycin-induced cytokine production; format: cell-based; conditions: Fig. 27 D-F
murine T cells = assay: PMA & ionomycin-induced cytokine production in primary cells; format: cell-based, mouse; conditions: Fig. 28 D-E
[11] = Ocular MTD study, subconjunctival; format: in vivo, rat
[12] = Ocular MTD study, subconjunctival; format: in vivo, rabbit
[13] = Stability of stock and diluted solutions; format: physicochemical
[14] = dual PKR and JNK inhibition, 10 μM

NH2-DQSRPVQPFLNLTTPRKPRPPRRRQRRKKRG-COOH (H-DQSRPVQPFLNLTTPRKPRPPRRRQRRKKRG-OH; also: D-amino acids (positions not given here)) [XG-102]
inhibition of JNK activity compared with L-JNKI [1]: 보다 효과적으로 JNK 활성을 억제한다 | development of glomerular and tubulointerstitial fibrosis (rats; 2 mg/kg i.v. day 0): 발생을 예방하고 | effect on adriamycin-induced nephropathy (histology) (rats; 20, 200, 2000 μg/kg i.v., days 8-41): 현저하게 긍정적인 효과를 갖는다 | serum urea level throughout the disease course (rats; ADR 10 mg/kg + XG-102 2 mg/kg i.v. day 0, up to day 56): ≤ 10 mmol/L | adverse effect on proteinuria (rats; albumin ELISA, Fig. 41): 어떠한 역효과도 유발하지 않는 | c-jun expression in the interstitium (rats; days 8 and 14, Fig. 46-47): 현저한 감소를 초래 | effect on PAN-induced glomerulosclerosis (Wistar rats [2]; 1 mg/kg, 7 weekly i.v. injections): 효과가 없었다 | effect on PAN-induced glomerulosclerosis (Wistar rats [2]; 4 mg/kg, 4 i.v. injections from day 21): 강한 효과를 초래하였다 | PAN-induced glomerulosclerosis (Wistar rats [2]; 7 weekly i.v. injections, 2 and 4 mg/kg): 용량 의존적으로 현저하게 감소시키는 | decrease in plasma LDL (Wistar rats [2]; especially 4 mg/kg groups): 현저하는 않더라도 관찰되었다 | effect on body weight vs PAN/saline (Wistar rats [2]; rat, in vivo): 관찰되지 않았다 | body weight vs vehicle-treated STZ rats (Sprague-Dawley rats [3]): 차이를 나타내지 않았다 | alveolar bone height loss (ABHL) (Wistar rats [4]): 골 파괴가 덜 심함 | IL1-β expression vs placebo (Wistar rats [4]; gingival tissue ELISA): 현저하게 감소되었다 | gingival inflammation (GI) level (Wistar rats [4]; single intragingival dose day 10): GI 수준을 강하게 감소시켰다 | OP#1 scotopic single flash 0dB amplitude (Brown Norway rats; 0.2 μg/eye IVT d1,8,15, day 6): 49 μV | OP#2 scotopic single flash 0dB amplitude (Brown Norway rats; 0.2 μg/eye, day 6): 98 μV | OP#3 scotopic single flash 0dB amplitude (Brown Norway rats; 0.2 μg/eye, day 6): 219 μV | OP#4 scotopic single flash 0dB amplitude (Brown Norway rats; 0.2 μg/eye, day 6): 147 μV | photopic 1Hz flicker A-wave amplitude (Brown Norway rats; 0.2 μg/eye, day 6): -3 μV | photopic 1Hz flicker B-wave amplitude (Brown Norway rats; 0.2 μg/eye, day 6): 63 μV | photopic 29Hz flicker B-wave amplitude (Brown Norway rats; 0.2 μg/eye, day 6): 9 μV | scotopic single flash 0dB A-wave amplitude (Brown Norway rats; 0.2 μg/eye, day 6): -209 μV | scotopic single flash 0dB B-wave amplitude (Brown Norway rats; 0.2 μg/eye, day 6): 421 μV | scotopic single flash -10dB A-wave amplitude (Brown Norway rats; 0.2 μg/eye, day 6): -151 μV | scotopic single flash -30dB B-wave amplitude (Brown Norway rats; 0.2 μg/eye, day 6): 269 μV | OP#1 scotopic single flash 0dB amplitude (Brown Norway rats; 0.2 μg/eye, day 13): 37 μV | OP#2 scotopic single flash 0dB amplitude (Brown Norway rats; 0.2 μg/eye, day 13): 63 μV | OP#3 scotopic single flash 0dB amplitude (Brown Norway rats; 0.2 μg/eye, day 13): 165 μV | OP#4 scotopic single flash 0dB amplitude (Brown Norway rats; 0.2 μg/eye, day 13): 129 μV | photopic 1Hz flicker A-wave amplitude (Brown Norway rats; 0.2 μg/eye, day 13): -4 μV | photopic 1Hz flicker B-wave amplitude (Brown Norway rats; 0.2 μg/eye, day 13): 71 μV | photopic 29Hz flicker B-wave amplitude (Brown Norway rats; 0.2 μg/eye, day 13): 14 μV | scotopic single flash 0dB A-wave amplitude (Brown Norway rats; 0.2 μg/eye, day 13): -203 μV | scotopic single flash 0dB B-wave amplitude (Brown Norway rats; 0.2 μg/eye, day 13): 442 μV | scotopic single flash -10dB A-wave amplitude (Brown Norway rats; 0.2 μg/eye, day 13): -128 μV | scotopic single flash -30dB B-wave amplitude (Brown Norway rats; 0.2 μg/eye, day 13): 270 μV | OP#1 scotopic single flash 0dB amplitude (Brown Norway rats; 0.2 μg/eye, day 20): 36 μV | OP#2 scotopic single flash 0dB amplitude (Brown Norway rats; 0.2 μg/eye, day 20): 70 μV | OP#3 scotopic single flash 0dB amplitude (Brown Norway rats; 0.2 μg/eye, day 20): 164 μV | OP#4 scotopic single flash 0dB amplitude (Brown Norway rats; 0.2 μg/eye, day 20): 116 μV | photopic 1Hz flicker A-wave amplitude (Brown Norway rats; 0.2 μg/eye, day 20): -2 μV | photopic 1Hz flicker B-wave amplitude (Brown Norway rats; 0.2 μg/eye, day 20): 70 μV | photopic 29Hz flicker B-wave amplitude (Brown Norway rats; 0.2 μg/eye, day 20): 10 μV | scotopic single flash 0dB A-wave amplitude (Brown Norway rats; 0.2 μg/eye, day 20): -198 μV | scotopic single flash 0dB B-wave amplitude (Brown Norway rats; 0.2 μg/eye, day 20): 433 μV | scotopic single flash -10dB A-wave amplitude (Brown Norway rats; 0.2 μg/eye, day 20): -129 μV | scotopic single flash -30dB B-wave amplitude (Brown Norway rats; 0.2 μg/eye, day 20): 240 μV | OP#1 scotopic single flash 0dB amplitude (Brown Norway rats; 2 μg/eye IVT d1,8,15, day 6): 40 μV | OP#2 scotopic single flash 0dB amplitude (Brown Norway rats; 2 μg/eye, day 6): 93 μV | OP#3 scotopic single flash 0dB amplitude (Brown Norway rats; 2 μg/eye, day 6): 239 μV | OP#4 scotopic single flash 0dB amplitude (Brown Norway rats; 2 μg/eye, day 6): 182 μV | photopic 1Hz flicker A-wave amplitude (Brown Norway rats; 2 μg/eye, day 6): -3 μV | photopic 1Hz flicker B-wave amplitude (Brown Norway rats; 2 μg/eye, day 6): 69 μV | photopic 29Hz flicker B-wave amplitude (Brown Norway rats; 2 μg/eye, day 6): 11 μV | scotopic single flash 0dB A-wave amplitude (Brown Norway rats; 2 μg/eye, day 6): -205 μV | scotopic single flash 0dB B-wave amplitude (Brown Norway rats; 2 μg/eye, day 6): 383 μV | scotopic single flash -10dB A-wave amplitude (Brown Norway rats; 2 μg/eye, day 6): -124 μV | scotopic single flash -30dB B-wave amplitude (Brown Norway rats; 2 μg/eye, day 6): 270 μV | OP#1 scotopic single flash 0dB amplitude (Brown Norway rats; 2 μg/eye, day 13): 33 μV | OP#2 scotopic single flash 0dB amplitude (Brown Norway rats; 2 μg/eye, day 13): 92 μV | OP#3 scotopic single flash 0dB amplitude (Brown Norway rats; 2 μg/eye, day 13): 219 μV | OP#4 scotopic single flash 0dB amplitude (Brown Norway rats; 2 μg/eye, day 13): 160 μV | photopic 1Hz flicker A-wave amplitude (Brown Norway rats; 2 μg/eye, day 13): -6 μV | photopic 1Hz flicker B-wave amplitude (Brown Norway rats; 2 μg/eye, day 13): 91 μV | photopic 29Hz flicker B-wave amplitude (Brown Norway rats; 2 μg/eye, day 13): 17 μV | scotopic single flash 0dB A-wave amplitude (Brown Norway rats; 2 μg/eye, day 13): -261 μV | scotopic single flash 0dB B-wave amplitude (Brown Norway rats; 2 μg/eye, day 13): 524 μV | scotopic single flash -10dB A-wave amplitude (Brown Norway rats; 2 μg/eye, day 13): -152 μV | scotopic single flash -30dB B-wave amplitude (Brown Norway rats; 2 μg/eye, day 13): 292 μV | OP#1 scotopic single flash 0dB amplitude (Brown Norway rats; 2 μg/eye, day 20): 26 μV | OP#2 scotopic single flash 0dB amplitude (Brown Norway rats; 2 μg/eye, day 20): 49 μV | OP#3 scotopic single flash 0dB amplitude (Brown Norway rats; 2 μg/eye, day 20): 137 μV | OP#4 scotopic single flash 0dB amplitude (Brown Norway rats; 2 μg/eye, day 20): 130 μV | photopic 1Hz flicker A-wave amplitude (Brown Norway rats; 2 μg/eye, day 20): -2 μV | photopic 1Hz flicker B-wave amplitude (Brown Norway rats; 2 μg/eye, day 20): 45 μV | photopic 29Hz flicker B-wave amplitude (Brown Norway rats; 2 μg/eye, day 20): 9 μV | scotopic single flash 0dB A-wave amplitude (Brown Norway rats; 2 μg/eye, day 20): -147 μV | scotopic single flash 0dB B-wave amplitude (Brown Norway rats; 2 μg/eye, day 20): 278 μV | scotopic single flash -10dB A-wave amplitude (Brown Norway rats; 2 μg/eye, day 20): -84 μV | scotopic single flash -30dB B-wave amplitude (Brown Norway rats; 2 μg/eye, day 20): 166 μV | substance-related deaths (Brown Norway rats; 0.2 and 2 μg/eye IVT): XG-102 관련된 사망은 없었다 | overall effect on decrease of ERG wave amplitudes (Brown Norway rats; rat, in vivo): 웨이브 진폭의 감소를 역전시키는 경향이 있다 | vascular leakage on fluorescein angiography (Brown Norway rats; rat, in vivo): 혈관 누출을 나타내지 않았고 | tumour growth [5]: 종양 성장을 현저하게 감소시켰다 | tolerance (body weight) ([6]; 1 mg/kg/inj i.v.): 내약성이 우수함 | T/C ([6]; 1 mg/kg/inj i.v. [Q4Dx4]x2): 120% | mean survival time (as headed) ([6]; 1 mg/kg/inj i.v. [Q4Dx4]x2, vehicle 102): 123 일 | median survival time ± SD (as headed) ([6]; 1 mg/kg/inj i.v. [Q4Dx4]x2 from D10, D41, vehicle 102 ± 8): 111 ± 14 days | mean tubular epithelial degeneration/necrosis score (0-4) (Sprague-Dawley rats [7]; 2 mg/kg i.v. 20 min after reperfusion, 24 h, IR/vehicle 3.45 ± 0.52): 2.67 ± 0.65 | animals with degeneration/necrosis score 2 (Sprague-Dawley rats [7]; 2 mg/kg i.v., IR/vehicle 0/11): 5/12 | mean basophilic tubules score (0-4) (Sprague-Dawley rats [7]; 2 mg/kg i.v., IR/vehicle 1.36 ± 0.67): 1.33 ± 0.65 | tubular cast score (0-4) (Sprague-Dawley rats [7]; 2 mg/kg i.v., IR/vehicle 3.00 ± 0.00): 2.50 ± 0.52 | animals with degeneration/necrosis score 4 (Sprague-Dawley rats [7]; 2 mg/kg i.v., IR/vehicle 5/11): 1/12 | total tubular score (Sprague-Dawley rats [7]; 2 mg/kg i.v., IR/vehicle 7.82 ± 0.98): 6.50 ± 0.80 | intercontraction interval (ICI) and bladder capacity (BC) vs basal [8]: 현저하게 증가시켰다 | threshold pressure (ThP) vs basal [8]: 현저한 감소 | JNK activity (pJNK/JNK) induced by H2O2 [9]: JNK 활성을 억제하였다 | decrease of PARP expression level vs treated WT neurons [10, 14]: 93% | decrease of caspase 3 activity vs treated WT neurons [10, 14]: 87% | decrease of cleaved caspase 3 vs treated WT neurons [10, 14]: 83% | change of JNK activation ([10]; peptide pre-treatment (XG-102 10 μM), 2 μM Aβ42): -35% | c-Jun activation ([10]; peptide pre-treatment, 2 μM Aβ42): 변화시키지 않았다 | PMA & ionomycin-induced IFNg, IL-6, IL-2 production (Jurkat cells): 사이토카인 방출을 억제한다 | PMA & ionomycin-induced TNFa, IFNg production (murine T cells): 사이토카인 방출을 억제한다 | NOAEL [11]: ~20 µg | NOAEL [12]: ~600 µg | stability of diluted formulations for animal dosing ([13]; 2-4°C): 24 시간 | stability of stock solution (1 mM) ([13]; about -80°C): 3 개월 | stability of stock solution (10 mM in water) ([13]; about -80°C): ≥ 100 일 | stability of diluted formulations for animal dosing ([13]; room temperature): 24 시간 | stability in saline ([13]; room temperature, 10 μg/ml - 50 mg/ml): 8 시간
